# Patent US20110135632A1
# Experiments:
# human TFII-I (human) = human TFII-I (human) (UniProt P78347); assay: cell-based or functional assay
# human GATA2 (human) = human GATA2 (human) (UniProt P23769); assay: cell-based or functional assay
# Chain of human GATA2 (human) (P23769 whole entry): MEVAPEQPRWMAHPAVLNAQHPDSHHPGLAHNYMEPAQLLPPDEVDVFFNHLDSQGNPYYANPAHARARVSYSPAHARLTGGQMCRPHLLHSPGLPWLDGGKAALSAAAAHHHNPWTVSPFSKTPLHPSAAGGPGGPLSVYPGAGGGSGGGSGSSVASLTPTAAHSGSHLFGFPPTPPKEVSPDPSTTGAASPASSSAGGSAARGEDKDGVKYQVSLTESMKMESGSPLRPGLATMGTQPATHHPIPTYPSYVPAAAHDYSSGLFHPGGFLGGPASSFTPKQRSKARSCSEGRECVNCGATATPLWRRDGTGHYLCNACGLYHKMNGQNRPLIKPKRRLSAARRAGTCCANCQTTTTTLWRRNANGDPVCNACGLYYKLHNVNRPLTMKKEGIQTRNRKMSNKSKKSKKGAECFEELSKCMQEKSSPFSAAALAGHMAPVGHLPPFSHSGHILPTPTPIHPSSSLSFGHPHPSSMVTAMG
# Chain of human TFII-I (human) (P78347 2-998 limits assumed): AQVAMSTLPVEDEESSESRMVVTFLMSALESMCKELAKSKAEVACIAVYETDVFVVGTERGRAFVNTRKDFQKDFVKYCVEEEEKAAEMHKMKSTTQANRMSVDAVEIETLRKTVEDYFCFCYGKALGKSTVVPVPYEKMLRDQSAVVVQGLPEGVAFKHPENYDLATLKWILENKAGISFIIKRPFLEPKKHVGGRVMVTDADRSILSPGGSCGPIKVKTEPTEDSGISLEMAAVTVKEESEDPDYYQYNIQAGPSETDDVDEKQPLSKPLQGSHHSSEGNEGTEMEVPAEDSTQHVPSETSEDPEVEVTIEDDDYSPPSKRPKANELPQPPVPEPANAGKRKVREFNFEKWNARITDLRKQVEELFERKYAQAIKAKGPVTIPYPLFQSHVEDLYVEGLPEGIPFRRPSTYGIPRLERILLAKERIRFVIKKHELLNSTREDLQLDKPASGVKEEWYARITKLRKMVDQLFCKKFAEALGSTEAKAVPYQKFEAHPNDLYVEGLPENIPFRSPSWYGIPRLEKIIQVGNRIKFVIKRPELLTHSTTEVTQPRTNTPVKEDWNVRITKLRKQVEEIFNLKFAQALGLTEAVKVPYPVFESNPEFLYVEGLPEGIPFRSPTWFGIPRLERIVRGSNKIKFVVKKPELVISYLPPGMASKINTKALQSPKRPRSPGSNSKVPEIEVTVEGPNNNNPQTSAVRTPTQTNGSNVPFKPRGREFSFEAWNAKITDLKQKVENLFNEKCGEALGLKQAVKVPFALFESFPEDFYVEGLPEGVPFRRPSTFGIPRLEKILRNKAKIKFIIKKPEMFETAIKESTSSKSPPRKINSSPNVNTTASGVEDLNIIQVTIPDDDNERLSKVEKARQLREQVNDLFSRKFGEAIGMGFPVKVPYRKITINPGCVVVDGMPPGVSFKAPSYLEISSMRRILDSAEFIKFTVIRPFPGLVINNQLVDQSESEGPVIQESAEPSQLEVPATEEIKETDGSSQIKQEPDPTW
binder,measurement,setting,value
human p190RhoGAP (protein) MMMARKQDVRIPTYNISVVGLSGTEKEKGQCGIGKSCLCNRFVRPSADEFHLDHTSVLSTSDFGGRVVNNDHFLYWGEVSRSLEDCVECKMHIVEQTEFIDDQTFQPHRSTALQPYIKRAAATKLASAEKLMYFCTDQLGLEQDFEQKQMPDGKLLVDGFLLGIDVSRGMNRNFDDQLKFVSNLYNQLAKTKKPIVVVLTKCDEGVERYIRDAHTFALSKKNLQVVETSARSNVNVDLAFSTLVQLIDKSRGKTKIIPYFEALKQQSQQIATAKDKYEWLVSRIVKNHNENWLSVSRKMQASPEYQDYVYLEGTQKAKKLFLQHIHRLKHEHIERRRKLYLAALPLAFEALIPNLDEIDHLSCIKAKKLLETKPEFLKWFVVLEETPWDATSHIDNMENERIPFDLMDTVPAEQLYEAHLEKLRNERKRVEMRRAFKENLETSPFITPGKPWEEARSFIMNEDFYQWLEESVYMDIYGKHQKQIIDKAKEEFQELLLEYSELFYELELDAKPSKEKMGVIQDVLGEEQRFKALQKLQAERDALILKHIHFVYHPTKETCPSCPACVDAKIEHLISSRFIRPSDRNQKNSLSDPNIDRINLVILGKDGLARELANEIRALCTNDDKYVIDGKMYELSLRPIEGNVRLPVNSFQTPTFQPHGCLCLYNSKESLSYVVESIEKSRESTLGRRDNHLVHLPLTLILVNKRGDTSGETLHSLIQQGQQIASKLQCVFLDPASAGIGYGRNINEKQISQVLKGLLDSKRNLNLVSSTASIKDLADVDLRIVMCLMCGDPFSADDILFPVLQSQTCKSSHCGSNNSVLLELPIGLHKKRIELSVLSYHSSFSIRKSRLVHGYIVFYSAKRKASLAMLRAFLCEVQDIIPIQLVALTDGAVDVLDNDLSREQLTEGEEIAQEIDGRFTSIPCSQPQHKLEIFHPFFKDVVEKKNIIEATHMYDNAAEACSTTEEVFNSPRAGSPLCNSNLQDSEEDIEPSYSLFREDTSLPSLSKDHSKLSMELEGNDGLSFIMSNFESKLNNKVPPPVKPKPPVHFEITKGDLSYLDQGHRDGQRKSVSSSPWLPQDGFDPSDYAEPMDAVVKPRNEEENIYSVPHDSTQGKIITIRNINKAQSNGSGNGSDSEMDTSSLERGRKVSIVSKPVLYRTRCTRLGRFASYRTSFSVGSDDELGPIRKKEEDQASQGYKGDNAVIPYETDEDPRRRNILRSLRRNTKKPKPKPRPSITKATWESNYFGVPLTTVVTPEKPIPIFIERCIEYIEATGLSTEGIYRVSGNKSEMESLQRQFDQDHNLDLAEKDFTVNTVAGAMKSFFSELPDPLVPYNMQIDLVEAHKINDREQKLHALKEVLKKFPKENHEVFKYVISHLNKVSHNNKVNLMTSENLSICFWPTLMRPDFSTMDALTATRTYQTIIELFIQQCPFFFYNRPITEPPGARPSSPSAVASTVPFLTSTPVTSQPSPPQSPPPTPQSPMQPLLPSQLQAEHTL,"TFII-I protein levels in the nuclear fraction of p190RhoGAP knockdown HMVE cells (immunoblot, fluorescence microscopy)",human TFII-I (human),1.5 fold
same,"GATA2 levels in the nucleus of p190RhoGAP knockdown cells relative to control cells (immunoblotting, fluorescence microscopy)",human GATA2 (human),> 10 fold
